# B1: Twister Ribozyme (parent)
# chain: AACACUGCCAAUGCCGGUCCCAAGCCCGGAUAAAAGUGGAGGGGGCGG
# Variants of: B1
# Assay: self-cleavage, relative activity (ratio to wild type); higher = more cleavage; co-transcriptional
row,Variant,self-cleavage
1,C15U C25U,0.914
2,C15U C26G,0.0693
3,C15U C26U,0.117
4,C15U C27A,0.105
5,C15U C27G,0.0731
6,C15U C46U,0.917
7,C15U G17C,0.0992
8,C15U G24U,0.122
9,C15U G28C,0.988
10,C15U G36C,0.204
11,C15U G38A,0.831
12,C15U G38U,0.76
13,C15U G39U,0.27
14,C15U G41A,0.483
15,C15U G41U,0.452
16,C15U G43A,0.225
17,C15U G43C,0.125
18,C15U G44A,0.935
19,C15U G47A,0.84
20,C15U G47U,0.8
21,C15U G48C,1.07
22,C15U U18C,0.396
23,C15U U18G,0.0578
24,C15U U31A,0.785

row,Variant,self-cleavage
1,C15U U37A,0.559
2,C15U U37C,0.295
3,C15U U37G,0.568
4,G16A A22C,0.941
5,G16A A22G,0.155
6,G16A A22U,0.631
7,G16A A23U,0.228
8,G16A A30C,0.91
9,G16A A30G,0.958
10,G16A A32G,0.888
11,G16A A32U,0.919
12,G16A A33G,0.892
13,G16A A34C,0.174
14,G16A A34G,0.574
15,G16A A35C,0.927
16,G16A A35G,0.555
17,G16A A35U,1.05
18,G16A A40C,0.122
19,G16A C19A,0.241
20,G16A C19U,0.826
21,G16A C20A,0.12
22,G16A C20U,0.837
23,G16A C21A,0.104
24,G16A C25A,0.117

row,Variant,self-cleavage
1,G16A C25G,0.298
2,G16A C26A,0.437
3,G16A C26U,0.107
4,G16A C27A,0.858
5,G16A C27U,1.17
6,G16A C46G,0.813
7,G16A G17A,0.281
8,G16A G17C,0.139
9,G16A G24A,0.0954
10,G16A G28U,0.607
11,G16A G29C,0.339
12,G16A G29U,0.663
13,G16A G36C,0.133
14,G16A G36U,0.174
15,G16A G38A,0.867
16,G16A G38C,0.761
17,G16A G39U,0.187
18,G16A G41A,0.364
19,G16A G42A,0.358
20,G16A G42U,0.197
21,G16A G43A,0.261
22,G16A G44C,0.871
23,G16A G45C,0.595
24,G16A G45U,0.858

row,Variant,self-cleavage
1,G16A G47A,0.702
2,G16A G47C,0.351
3,G16A U18A,0.482
4,G16A U18C,0.41
5,G16A U31G,0.996
6,G16A U37A,0.457
7,G16A U37C,0.335
8,G16C A22U,0.21
9,G16C A23G,0.092
10,G16C A23U,0.0704
11,G16C A30C,0.363
12,G16C A33C,0.427
13,G16C A33U,0.359
14,G16C A34U,0.207
15,G16C A35G,0.483
16,G16C A35U,0.577
17,G16C A40C,0.0741
18,G16C A40U,0.114
19,G16C C19G,0.1
20,G16C C20U,0.489
21,G16C C21A,0.0849
22,G16C C25G,0.0947
23,G16C C25U,0.188
24,G16C C26G,0.0968

row,Variant,self-cleavage
1,G16C C26U,0.171
2,G16C C27A,0.684
3,G16C C27G,0.608
4,G16C C46U,0.78
5,G16C G17A,0.124
6,G16C G24U,0.0773
7,G16C G28C,0.306
8,G16C G29A,0.222
9,G16C G29C,0.117
10,G16C G36A,0.188
11,G16C G38A,0.676
12,G16C G38U,0.535
13,G16C G39U,0.144
14,G16C G41A,0.143
15,G16C G43C,0.161
16,G16C G43U,0.11
17,G16C G44A,0.803
18,G16C G44C,0.649
19,G16C G44U,0.81
20,G16C G47A,0.165
21,G16C G47C,0.268
22,G16C G47U,0.602
23,G16C G48A,0.473
24,G16C G48C,0.709

row,Variant,self-cleavage
1,G16C G48U,0.414
2,G16C U18G,0.116
3,G16C U31A,0.657
4,G16C U31C,0.429
5,G16C U37G,0.134
6,G16U A23C,0.115
7,G16U A23G,0.0652
8,G16U A30G,0.761
9,G16U A32C,1.1
10,G16U A33C,0.66
11,G16U A33G,0.597
12,G16U A33U,0.88
13,G16U A34C,0.111
14,G16U A34G,0.396
15,G16U A34U,0.577
16,G16U A35C,0.961
17,G16U A35G,0.765
18,G16U A35U,0.948
19,G16U A40C,0.156
20,G16U A40U,0.137
21,G16U C19A,0.284
22,G16U C19G,0.342
23,G16U C19U,0.697
24,G16U C20A,0.109

row,Variant,self-cleavage
1,G16U C20G,0.098
2,G16U C20U,0.797
3,G16U C25U,0.809
4,G16U C26A,0.45
5,G16U C26G,0.136
6,G16U C26U,0.15
7,G16U C27G,0.941
8,G16U C27U,1.16
9,G16U C46A,0.662
10,G16U C46U,1.02
11,G16U G17A,0.0957
12,G16U G17U,0.231
13,G16U G24C,0.118
14,G16U G28U,1.07
15,G16U G29U,0.87
16,G16U G36C,0.156
17,G16U G38A,0.935
18,G16U G38C,1.02
19,G16U G39C,0.173
20,G16U G41C,0.212
21,G16U G41U,0.35
22,G16U G42C,0.25
23,G16U G44A,1.01

# Reference: the RNAGym collection of RNA variant scans (doi:10.7554/elife.80360)
